B1: Polycomb complex protein BMI-1 (Homo sapiens), P35226 (parent)
chain: MHRTTRIKITELNPHLMCVLCGGYFIDATTIIECLHSFCKTCIVRYLETSKYCPICDVQVHKTRPLLNIRSDKTLQDIVYKLVPGLFKNEMKRRRDFYAAHPSADAANGSNEDRGEVADEDKRIITDDEIISLSIEFFDQNRLDRKVNKDKEKSKEEVNDKRYLRCPAAMTVMHLRKFLRSKMDIPNTFQIDVMYEEEPLKDYYTLMDIAYIYTWRRNGPLPLKYRVRPTCKRMKISHQRDGLTNAGELESDSGSDKANSPAGGIPSTSSCLPSPSTPVQSPHPQFPHISSTMNGTSNSPSGNHQSSFANRPRKSSVNGSSATSSG

Variants of: B1
Conditions: with ubc_human UBC

Row | effect of a mutation on the interaction | Variant
1 | increasing interaction | MHRTTRIKITELNPHLMYVLCGGYFIDATTIIECLHSFCKTCIVRYLETSKYCPICDVQVHKTRPLLNIRSDKTLQDIVYKLVPGLFKNEMKRRRDFYAAHPSADAANGSNEDRGEVADEDKRIITDDEIISLSIEFFDQNRLDRKVNKDKEKSKEEVNDKRYLRCPAAMTVMHLRKFLRSKMDIPNTFQIDVMYEEEPLKDYYTLMDIAYIYTWRRNGPLPLKYRVRPTCKRMKISHQRDGLTNAGELESDSGSDKANSPAGGIPSTSSCLPSPSTPVQSPHPQFPHISSTMNGTSNSPSGNHQSSFANRPRKSSVNGSSATSSG [C18Y]
